Assay [1] concerns the target C1q Receptor in the complement system (rabbit serum as the source of complement) (rabbit). As to the kind of experiment: cell-based or functional assay.
Assay [2] addresses FcγIIIA Receptor on the effector cells (human) (UniProt P08637). Kind of assay: cell-based or functional assay.

FcγIIIA Receptor on the effector cells (human), sequence (P08637 17-254): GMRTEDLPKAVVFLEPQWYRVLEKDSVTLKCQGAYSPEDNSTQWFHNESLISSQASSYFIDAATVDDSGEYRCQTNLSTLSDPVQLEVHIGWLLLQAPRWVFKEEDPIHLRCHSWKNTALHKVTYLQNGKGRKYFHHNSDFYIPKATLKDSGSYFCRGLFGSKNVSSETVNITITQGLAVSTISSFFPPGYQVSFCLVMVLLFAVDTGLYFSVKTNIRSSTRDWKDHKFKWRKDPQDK

In the case of ARZERRA (ofatumumab) (antibody), in assay [1], the EC50 (CDC, Jeko-1 cells, rabbit complement) is 353 ng/mL. For the same substance, in assay [2], the EC50 (ADCC, Raji targets, KILR CD16a effector cells) is 74.1 pg/mL and the EC50 of ADCC assay Using Primary NK Cells (Raji targets, LDH release) came out at 500 µg/mL.

In assay [2], GAZYVA (obinutuzumab) (antibody) yielded an EC50 (ADCC, Raji targets, KILR CD16a effector cells) of 6.58 pg/mL and an EC50 of ADCC assay Using Primary NK Cells (Raji targets, LDH release) of 19 µg/mL.

Consider RITUXAN (rituximab) (antibody), for which the EC50 (CDC, Jeko-1 cells, rabbit complement) in assay [1] was 245 ng/mL. In assay [2], this substance yielded an EC50 (ADCC, Raji targets, KILR CD16a effector cells) of 5460 pg/mL and an EC50 of ADCC assay Using Primary NK Cells (Raji targets, LDH release) of 1390 µg/mL.

OCREVUS (ocrelizumab) (antibody) showed an EC50 (CDC, Jeko-1 cells, rabbit complement) in assay [1] of 1210 ng/mL. In assay [2], this substance showed an EC50 (ADCC, Raji targets, KILR CD16a effector cells) of 60.8 pg/mL.

Source of the values: US11884740.
